Two substances from publication PMC7888922 can be followed below.

The test addresses sACE2_(2).v2.4-IgG1 (human) (UniProt Q9BYF1). The experiment in a line: BLI. A general note: In BLI a coated tip is dipped into the sample, and binding shifts an interference pattern.

In the case of “SARS-CoV-2 RBD-Y449K (8his-tagged) (from UniProt P0DTC2 333-529) (domain or fragment)”, the Kd (as a rule, the equilibrium constant for the complex coming apart) was 0.9 nM; the off-rate constant (koff) (usually the first-order rate constant of dissociation) is 0.004 s⁻¹; the kon (usually the second-order rate constant of association) came out at 4.3e+06 M⁻¹ s⁻¹.

For “SARS-CoV-2 RBD-N501Y (8his-tagged) (from UniProt P0DTC2 333-529) (domain or fragment)”, the Kd is less than 0.1 nM, the dissociation rate constant (koff) worked out at 0.00011 s⁻¹ and the kon was found to be 360000 M⁻¹ s⁻¹.
